Laboratory results from US20250250335A1 (SHENGHE CHINA BIOPHARMACEUTICAL, published 2025).
Read-outs that look alike come from different tables or passages of the source.

What was measured:
[1] = molecular target: T1, human CEACAM5-his (ACRO CE5-H5226) (human, UniProt P06731 35-685); experiment: ELISA on coated human CEACAM5, OD450
T1 construct: Bought protein; not shown: His tag
T1 sequence (looked up): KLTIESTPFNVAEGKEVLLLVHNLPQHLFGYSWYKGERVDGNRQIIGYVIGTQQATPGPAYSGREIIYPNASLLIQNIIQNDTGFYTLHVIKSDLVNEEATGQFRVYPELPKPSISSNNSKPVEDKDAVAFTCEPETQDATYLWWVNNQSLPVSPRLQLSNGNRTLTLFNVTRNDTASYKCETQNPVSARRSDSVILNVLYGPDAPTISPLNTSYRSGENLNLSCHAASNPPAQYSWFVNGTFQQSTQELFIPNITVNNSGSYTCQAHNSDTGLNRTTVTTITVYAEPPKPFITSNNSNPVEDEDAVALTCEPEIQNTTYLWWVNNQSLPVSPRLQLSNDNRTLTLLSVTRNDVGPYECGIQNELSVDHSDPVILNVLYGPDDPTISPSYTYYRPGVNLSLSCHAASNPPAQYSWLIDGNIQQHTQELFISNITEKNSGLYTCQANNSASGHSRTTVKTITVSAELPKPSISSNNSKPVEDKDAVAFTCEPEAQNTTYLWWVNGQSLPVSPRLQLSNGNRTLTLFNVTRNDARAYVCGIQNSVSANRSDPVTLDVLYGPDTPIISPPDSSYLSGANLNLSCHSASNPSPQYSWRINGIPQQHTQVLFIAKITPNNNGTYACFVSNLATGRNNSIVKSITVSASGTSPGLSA
Protocol: (§1) The binding activity of the antibodies to human CEACAM5, human CEACAM6, and human CEACAM6 (AB) proteins was detected by ELISA. The plate coated with proteins was incubated at 4° C. overnight, and the 96-well ELISA plate blocked with 2% PBS-BSA was added with the antibody to be detected and incubated at 37° C. for 1 h. After washing 3 times with PBS containing 0.05% Tween, the absorbance value of each well was read at wavelength 450 nm with the gradient-diluted mouse-derived candidate antibody as the primary antibody and anti-mouse-IgG-FC-HRP as the secondary antibody, and the absorbance value of each well was read at wavelength 450 nm after the TMB color development.

[2] = molecular target: T2, CEACAM5 on the surface of the tumor cells (HPAFII cells) (UniProt P06731 35-685); experiment: flow cytometry on HPAFII cells (Mean-FITC); the cells carry CEACAM5 and CEACAM6, signal not divided between the two
T2 construct: whole, on cells
T2 sequence (looked up): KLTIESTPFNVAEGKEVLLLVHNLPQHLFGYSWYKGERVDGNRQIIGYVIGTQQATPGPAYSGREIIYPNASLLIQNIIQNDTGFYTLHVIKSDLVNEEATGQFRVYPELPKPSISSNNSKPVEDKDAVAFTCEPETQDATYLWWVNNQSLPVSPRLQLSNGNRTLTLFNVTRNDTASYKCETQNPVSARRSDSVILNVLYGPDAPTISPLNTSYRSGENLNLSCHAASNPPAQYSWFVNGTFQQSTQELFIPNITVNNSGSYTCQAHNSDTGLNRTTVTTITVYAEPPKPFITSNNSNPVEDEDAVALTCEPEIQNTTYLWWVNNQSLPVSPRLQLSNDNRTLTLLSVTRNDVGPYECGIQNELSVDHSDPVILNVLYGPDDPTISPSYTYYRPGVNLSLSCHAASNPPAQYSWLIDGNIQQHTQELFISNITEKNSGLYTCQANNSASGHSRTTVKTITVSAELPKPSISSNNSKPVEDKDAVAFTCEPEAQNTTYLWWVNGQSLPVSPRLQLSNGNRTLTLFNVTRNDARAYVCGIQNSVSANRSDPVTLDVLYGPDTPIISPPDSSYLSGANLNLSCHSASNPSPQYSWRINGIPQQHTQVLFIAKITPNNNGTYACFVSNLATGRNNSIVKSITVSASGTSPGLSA
Protocol: (§2) The antibody to be tested was taken as the initial concentration of 200 nM and diluted 5-fold with 6 gradients. The HPAFII cells (From USTC […] FOR ADVANCED STUDIES) in the incubator were taken out, and the cell suspension was transferred to a 15 mL centrifuge tube, centrifuged, and counted by resuspension in PBS. A blank control group (Blank), a negative control group (NC), an experimental group, a positive control group and the irrelevant antibody group were kept. […] The cell suspension was spread in a 96-well plate according to about 3×10⁵ cells/well. Centrifugation (1000 rpm, 5 min) was performed, followed by washing with PBS, re-centrifugation, and repeated twice to remove media residues. The supernatant was discarded, 100 μL of primary antibody solution and irrelevant antibody solution were added to the experimental group and irrelevant antibody group, respectively, and the cells were resuspended and incubated at room temperature for 1 h. The blank group, and the negative control group were incubated with an equal amount of PBS.
(§3) After 1 h, PBS was added to wash twice. After the supernatant was discarded, 100 μL of fluorescent secondary antibody dilution (Mouse-derived secondary antibody from Abcam ab6785) was added to each sample group, except for the blank group which was added with 100 μL of PBS. After incubation at room temperature and protected from light for 0.5 h, centrifugation was performed and PBS added to wash the samples twice. After the supernatant was discarded, 120 μL of PBS was added to resuspend and sequentially flow cytometry was performed to detect the mean fluorescence intensity. The concentration of the antibody was logarithmically taken as the horizontal coordinate, and the Sigmoidaldose-response (VariableSlope) method (GraphPadPrism Software, GraphPadSoftware, San Diego, California) was chosen to perform a nonlinear regression to obtain the binding activity curves of the antibody on HPAFII cells.

[3] = molecular target: T3, CEACAM6 on the surface of the tumor cells (HPAFII cells) (UniProt P40199 35-320); experiment: as above
T3 construct: whole, on cells
T3 sequence (looked up): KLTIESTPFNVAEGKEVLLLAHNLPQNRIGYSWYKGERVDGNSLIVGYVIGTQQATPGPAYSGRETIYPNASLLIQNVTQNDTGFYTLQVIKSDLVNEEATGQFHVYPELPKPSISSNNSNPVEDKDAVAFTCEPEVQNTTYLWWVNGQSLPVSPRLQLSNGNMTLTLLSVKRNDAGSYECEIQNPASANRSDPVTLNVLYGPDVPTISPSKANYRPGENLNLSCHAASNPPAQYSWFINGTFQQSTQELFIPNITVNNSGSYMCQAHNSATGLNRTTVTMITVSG
Protocol: as §2, §3

mouse CEACAM5 = molecular target: T4, mouse CEACAM5 (mouse, UniProt Q3UKK2 35-947, limits assumed); experiment: ELISA on coated protein, OD450
T4 sequence (looked up): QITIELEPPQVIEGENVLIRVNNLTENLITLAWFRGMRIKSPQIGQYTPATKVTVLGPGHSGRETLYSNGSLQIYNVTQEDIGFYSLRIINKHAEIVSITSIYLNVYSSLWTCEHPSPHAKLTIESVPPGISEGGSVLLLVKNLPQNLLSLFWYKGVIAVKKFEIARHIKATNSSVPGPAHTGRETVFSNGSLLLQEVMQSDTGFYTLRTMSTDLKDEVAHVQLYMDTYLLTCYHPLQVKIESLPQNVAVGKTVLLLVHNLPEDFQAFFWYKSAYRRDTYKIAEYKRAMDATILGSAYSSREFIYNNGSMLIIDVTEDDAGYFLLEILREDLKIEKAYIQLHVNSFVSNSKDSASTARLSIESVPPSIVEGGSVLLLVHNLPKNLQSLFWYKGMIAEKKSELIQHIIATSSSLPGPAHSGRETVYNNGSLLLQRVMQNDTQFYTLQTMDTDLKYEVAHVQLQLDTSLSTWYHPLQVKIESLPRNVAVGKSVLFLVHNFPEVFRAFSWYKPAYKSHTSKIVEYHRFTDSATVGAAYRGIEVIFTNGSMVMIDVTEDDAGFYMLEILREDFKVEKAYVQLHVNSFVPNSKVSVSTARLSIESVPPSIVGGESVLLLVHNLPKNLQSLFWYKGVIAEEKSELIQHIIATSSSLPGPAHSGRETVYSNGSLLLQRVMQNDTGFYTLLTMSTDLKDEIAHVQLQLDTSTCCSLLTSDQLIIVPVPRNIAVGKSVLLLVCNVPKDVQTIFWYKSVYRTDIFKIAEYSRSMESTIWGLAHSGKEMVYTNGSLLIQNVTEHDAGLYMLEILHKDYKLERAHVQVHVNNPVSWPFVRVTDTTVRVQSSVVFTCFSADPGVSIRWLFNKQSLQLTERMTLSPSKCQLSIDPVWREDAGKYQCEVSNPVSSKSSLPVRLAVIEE
Protocol: The affinity of the antibodies to monkey CEACAM5, monkey CEACAM6, and mouse CEACAM5 proteins was determined by ELISA. The plates encapsulated with […] proteins were incubated at 4° C. overnight, and the antibodies to be detected were added to 96-well ELISA plates after being blocked with 2% PBS-BSA and incubated at 37° C. for 1 h. After washing 3 times with PBS containing 0.05% Tween, the absorbance value of each well was read at wavelength 450 nm with the antibody to be detected as the primary antibody and Goat anti-mouse IgG-FC-HRP as the secondary antibody, and the absorbance value of each well was read at wavelength 450 nm after the TMB color development. The specific binding to CEACAM5 and CEACAM6 of mouse and monkey was detected by Elisa method.

Human-CEACAM6 (AB)-His = molecular target: T5, Human-CEACAM6 (AB)-His (human, UniProt P40199 145-314); experiment: ELISA on coated human CEACAM6 (AB), OD450
T5 construct: Made in house, purified on a nickel column
T5 sequence (P40199 other isoform, or with tags, fused parts or gaps limits assumed): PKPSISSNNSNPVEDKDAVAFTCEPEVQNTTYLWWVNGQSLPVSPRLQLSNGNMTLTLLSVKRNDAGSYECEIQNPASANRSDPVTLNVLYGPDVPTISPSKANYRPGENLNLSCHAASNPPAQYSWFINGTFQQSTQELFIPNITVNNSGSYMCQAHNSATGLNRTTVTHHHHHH
Protocol: as §1

[4] = molecular target: T1, human CEACAM5-his (ACRO CE5-H5226); experiment: ELISA on coated human CEACAM5, OD450; remark: listed apart in the source
Protocol: as §1

[5] = molecular target: T3, CEACAM6 on the surface of the tumor …; experiment: flow cytometry on HPAFII cells (Mean PE); the cells carry CEACAM5 and CEACAM6, signal not divided between the two
Protocol: Centrifugation (1000 rpm, 5 min) was performed, followed by washing with PBS, re-centrifugation, and repeated twice to remove media residues. The supernatant was discarded, 100 μL of primary antibody solution and irrelevant antibody solution were added to the experimental group and irrelevant antibody group, respectively, and the cells were resuspended and incubated at room temperature for 1 h. The blank group, and the negative control group were incubated with an equal amount of PBS.
as §3, with “(Secondary” for “(Mouse-derived secondary”, “ab98596)” for “ab6785)”

B1: Antibody 2 (antibody, V domains shown)
VH: EVKLVESGGGLVQPGGSLRLSCATSEFTLIDYYMSWVRQSPGKALEWLGYIRNKVNGHTTDYIASVKGRFAISRDNSQSILYLQMNTLRVEDSATYYCVRDPGINWYFDVWGAGTTVTVSS
VL: QIVLSQSPAILSASPGEKVTMTCRASSRVTYMHWYQQKPGSSPKPWISATSNLASGVPARFSGSGSGTSYSLTISRVEAEDAATYYCQQWSYNPPTFGAGTKLELN
notes: Mouse-derived hybridoma antibody; also called mouse-derived antibody 2
[1]
  EC50 (read off the curve): ~0.02 µg/mL
[2]
  EC50 (read off the curve): ~3 nM
[3]
  EC50 (read off the curve): ~3 nM
Mouse CEACAM5
  OD: 0.15 OD

B2: Antibody 12 (antibody, V domains shown)
VH: EVKLVESGGGLVQPGGSLSLSCAVSGFIFTDYFMSWVRQPPGKTLEWLALIRNKANGYIIEYSESVKGRFTISRGNSQSIFYLQMNALRTEDSATYYCARDIGIRWNFDVWGAGTTVTVSS
VL: QIVLTQSPAIMSASPGEKVTMTCSATSRVTYMHWYQQKSGTSPKRWIYATSTLASGVPARFSGSGSGTSYSLTISSMEAEDAATYYCQQWSYNPPTFGSGTKLEIK
notes: Mouse-derived hybridoma antibody; also called mouse-derived antibody 12
Human-CEACAM6 (AB)-His
  EC50 (read off the curve): ~0.009 µg/mL
[4]
  EC50 (read off the curve): ~0.02 µg/mL

B3: Antibody 5 (antibody, V domains shown)
VH: QIQLVQSGPELMKPGETVKISCKASGYTFTNYGMNWVKQAPGKGLKWLGWINTYTGKPTYADDIKERFVFSLETSASTAYLQINNLKNEDTATYFCARRDYRGWYFDVWGAGTPVTVSS
VL: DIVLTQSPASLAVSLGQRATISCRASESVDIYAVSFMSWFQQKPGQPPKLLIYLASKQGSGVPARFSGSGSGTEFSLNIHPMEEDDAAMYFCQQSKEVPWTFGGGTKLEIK
notes: Mouse-derived hybridoma antibody; also called mouse-derived antibody 5
[1]
  binding result: binds
Human-CEACAM6 (AB)-His
  EC50 (read off the curve): ~0.04 µg/mL

B4: Antibody 3 (antibody, V domains shown)
VH: EVQMVESGGGLVKPGGSLKLSCAASGFTFSDYYMYWVRQSPEKRLEWVATISDAGTYTSYLDSVKGRFIISRDNAKNNLYLQMSSLKSEDTAIYYCARNYYGSSPYGMDYWGQGTSVTVSS
VL: QIVLTQSPAIMSASPGEKVTMTCSASSSVIYMHWYQQKSGTSPKRWIYDTSKLASGVPARFSGSGSGTSYSLTISSMEAEDAATYYCQQWSSHPLTFGAGTKLELK
notes: Mouse-derived hybridoma antibody; also called mouse-derived antibody 3
[1]
  EC50 (read off the curve): ~0.02 µg/mL
[2]
  EC50 (read off the curve): ~1 nM
[3]
  EC50 (read off the curve): ~1 nM

B5: Antibody E (antibody, human IgG1, kappa, V domains shown)
VH: EVQLVESGGGLVQPGGSLRLSCATSEFTLIDYYMSWVRQAPGKALEWVGYIRNKVNGHTTDYIASVKGRFTISRDDSKNSLYLQMNSLKTEDTAVYYCVRDPGINWYFDVWGQGTLVTVSS
VL: EIVLTQSPATLSLSPGERATLSCRASSRVTYMHWYQQKPGQSPRPLISATSNLASGIPARFSGSGSGTDYTLTISSLEPEDFAVYYCQQWSYNPPTFGGGTKLELKR
notes: humanized from mouse-derived antibody 2; also called humanized antibody E
[5]
  binding result: binds

B6: Antibody F (antibody, human IgG1, kappa, V domains shown)
VH: EVQLVESGGGLVQPGGSLRLSCATSEFTLIDYYMSWVRQAPGKALEWVGYIRNKVNGHTTDYIASVKGRFTISRDDSKNSLYLQMNSLKTEDTAVYYCVRDPGINWYFDVWGQGTLVTVSS
VL: QIVLTQSPATLSLSPGERATLSCRASSRVTYMHWYQQKPGSSPKPLISATSNLASGIPARFSGSGSGTDYTLTISSLEPEDFATYYCQQWSYNPPTFGGGTKLELKR
notes: humanized from mouse-derived antibody 2; also called humanized antibody F
[5]
  binding result: binds

B7: Antibody 4 (antibody, V domains shown)
VH: QIQLVQSGPELKKPGETVKISCKASGYTFTDYSLHWVKQVPVKGLKWMGWINTETGEPTYADDFKGRFAFSLDTSASSAYLQIHNLKNEDTATYFCASPVSLLFYYFTVWGAGTTVTVSA
VL: DIQMTQTTSSLSASLGDRVTISCRASQDISHFLNWYQQKPDGTVELLIYYTSRLLSGVPSRFSGSGSGTDYSLTIANLEQEDIATYFCQQGKTLPWTFGGGTKVEIK
notes: Mouse-derived hybridoma antibody; also called mouse-derived antibody 4
[1]
  EC50 (read off the curve): ~0.02 µg/mL
[2]
  EC50 (read off the curve): ~2 nM
[3]
  EC50 (read off the curve): ~2 nM
